In the supplement of paper PMC10567573 one finds protein stability index data, which are given here for 94 variants.

First the molecules themselves.
B1: CCDC70 (parent)
chain: FSFKVSRWMGLACFRSLAASSPSI
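Note: lentivirally expressed fusions sorted by FACS into six bins by GFP to DsRed ratio, PSI derived from sequencing read proportions per bin multiplied by bin number.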

The variants in this data set derive from B1. Kind of data set: protein stability index of a GFP-peptide fusion (GPS, HEK-293T) (PSI 1-6); higher = more stable. The conditions noted are these: c terminus: a fixed tail appended.
Take FSFKVSRWAGLACFRSLAASSPSI [M9A]: the protein stability index amounted to 2.28.

As for FSFKVSRWKGLACFRSLAASSPSI [M9K], the protein stability index amounted to 2.21.

Take FSFKVSRWYGLACFRSLAASSPSI [M9Y]: the protein stability index stood at 3.2.

Regarding FSFKVSRWDGLACFRSLAASSPSI [M9D], the protein stability index was found to be 4.03.

Regarding FSFKVSRWEGLACFRSLAASSPSI [M9E], the protein stability index was found to be 2.5.

As for FSFKVSRWHGLACFRSLAASSPSI [M9H], the protein stability index is 2.8.

Take FSFKVSRAMGLACFRSLAASSPSI [W8A]: the protein stability index is 1.12.

On to FSFKVSRFMGLACFRSLAASSPSI [W8F], for which the protein stability index is 4.12.

In the case of FSFKVSREMGLACFRSLAASSPSI [W8E], the protein stability index was found to be 1.29.

For FSFKVSRLMGLACFRSLAASSPSI [W8L], the protein stability index came to 3.27.

Regarding FSFKVSRRMGLACFRSLAASSPSI [W8R], the protein stability index was determined as 1.81.

In the case of FSFKVSRIMGLACFRSLAASSPSI [W8I], the protein stability index was determined as 2.9.

With FSFKVSRYMGLACFRSLAASSPSI [W8Y], the protein stability index is 3.02.

Take FSFKVSRTMGLACFRSLAASSPSI [W8T]: the protein stability index was 2.58.

Regarding FSFKVSRKMGLACFRSLAASSPSI [W8K], the protein stability index amounted to 2.29.

Turning to FSFKVSRGMGLACFRSLAASSPSI [W8G], the protein stability index stood at 3.55.

In the case of FSFKVSRPMGLACFRSLAASSPSI [W8P], the protein stability index is 2.4.

Consider FSFKVSRVMGLACFRSLAASSPSI [W8V], for which the protein stability index was determined as 3.21.

For the variant FSFKVSRDMGLACFRSLAASSPSI [W8D], the protein stability index turned out to be 1.76.

On to FSFKVSRCMGLACFRSLAASSPSI [W8C], for which the protein stability index is 2.07.

FSFKVSRSMGLACFRSLAASSPSI [W8S]: the protein stability index turned out to be 2.08.

FSFKVSRMMGLACFRSLAASSPSI [W8M]: the protein stability index was found to be 1.77.

For FSFKVSRHMGLACFRSLAASSPSI [W8H], the protein stability index was found to be 2.82.

Turning to FSFKVSRQMGLACFRSLAASSPSI [W8Q], the protein stability index is 3.47.

As to FSFKVSRWMGLACFRSLAAFSPSI [S20F], the protein stability index amounted to 4.72.

As for FSFKVSRWMGLACFRSLAACSPSI [S20C], the protein stability index is 3.42.

With FSFKVSRWMGLACFRSLAAASPSI [S20A], the protein stability index was found to be 3.7.

FSFKVSRWMGLACFRSLAADSPSI [S20D]: the protein stability index came to 3.1.

Turning to FSFKVSRWMGEACFRSLAASSPSI [L11E], the protein stability index was found to be 1.76.

FSFKVSRWMGMACFRSLAASSPSI [L11M]: the protein stability index turned out to be 3.73.

On to FSFKVSRWMGSACFRSLAASSPSI [L11S], for which the protein stability index is 3.51.

As to FSFKVSRWMGPACFRSLAASSPSI [L11P], the protein stability index came out at 2.72.

As to FSFKVSRWMGGACFRSLAASSPSI [L11G], the protein stability index came out at 3.16.

With FSFKVSRWMGNACFRSLAASSPSI [L11N], the protein stability index was 2.65.

Regarding FSFKVSRWMGAACFRSLAASSPSI [L11A], the protein stability index came out at 3.24.

For the variant FSFKVSRWMGTACFRSLAASSPSI [L11T], the protein stability index worked out at 3.12.

Turning to FSFKVSRWMGYACFRSLAASSPSI [L11Y], the protein stability index came out at 3.04.

Regarding FSFKVSRWMGIACFRSLAASSPSI [L11I], the protein stability index came out at 3.88.

For FSFKVSRWMGDACFRSLAASSPSI [L11D], the protein stability index was 2.84.

With FSFKVSRWMGHACFRSLAASSPSI [L11H], the protein stability index stood at 5.37.

In the case of FSFKVSRWMGFACFRSLAASSPSI [L11F], the protein stability index stood at 3.35.

Regarding FSFKVSRWMGRACFRSLAASSPSI [L11R], the protein stability index was 4.02.

With FSFKVSRWMGLECFRSLAASSPSI [A12E], the protein stability index worked out at 2.75.

On to FSFKVSRWMGLFCFRSLAASSPSI [A12F], for which the protein stability index was 2.57.

In the case of FSFKVSRWMGLVCFRSLAASSPSI [A12V], the protein stability index turned out to be 1.98.

In the case of FSFKVSRWMGLMCFRSLAASSPSI [A12M], the protein stability index came out at 3.25.

As to FSFKVSRWMGLQCFRSLAASSPSI [A12Q], the protein stability index came out at 3.81.

On to FSFKVSRWMGLHCFRSLAASSPSI [A12H], for which the protein stability index came out at 1.57.

As to FSFKVSRWMGLLCFRSLAASSPSI [A12L], the protein stability index was 2.

For the variant FSFKVSRWMGLCCFRSLAASSPSI [A12C], the protein stability index was 3.26.

In the case of FSFKVSRWMGLDCFRSLAASSPSI [A12D], the protein stability index was 2.87.

With FSFKVSRWMGLSCFRSLAASSPSI [A12S], the protein stability index amounted to 2.02.

In the case of FSFKVSRWMGLICFRSLAASSPSI [A12I], the protein stability index worked out at 3.43.

For the variant FSFKVSRWMGLYCFRSLAASSPSI [A12Y], the protein stability index is 2.87.

Turning to FSFKVSRWMGLRCFRSLAASSPSI [A12R], the protein stability index came to 1.49.

FSFKVSRWMGLKCFRSLAASSPSI [A12K]: the protein stability index is 3.62.

On to FSFKVSRWMGLPCFRSLAASSPSI [A12P], for which the protein stability index is 2.56.

FSFKVSRWMGLACVRSLAASSPSI [F14V]: the protein stability index was determined as 3.5.

With FSFKVSRWMGLACTRSLAASSPSI [F14T], the protein stability index was 1.31.

Turning to FSFKVSRWMGLACWRSLAASSPSI [F14W], the protein stability index amounted to 1.7.

On to FSFKVSRWMGLACRRSLAASSPSI [F14R], for which the protein stability index amounted to 4.52.

Consider FSFKVSRWMGLACPRSLAASSPSI [F14P], for which the protein stability index was determined as 3.6.

Take FSFKVSRWMGLACQRSLAASSPSI [F14Q]: the protein stability index came to 1.72.

In the case of FSFKVSRWMGLACLRSLAASSPSI [F14L], the protein stability index stood at 2.

Turning to FSFKVSRWMGLACNRSLAASSPSI [F14N], the protein stability index worked out at 2.56.

In the case of FSFKVSRWMGLACIRSLAASSPSI [F14I], the protein stability index came to 1.54.

FSFKVSRWMGLACSRSLAASSPSI [F14S]: the protein stability index amounted to 1.61.

As to FSFKVSRWMGLACDRSLAASSPSI [F14D], the protein stability index came out at 2.84.

With FSFKVSRWMGLACARSLAASSPSI [F14A], the protein stability index is 3.51.

In the case of FSFKVSRWMGLACGRSLAASSPSI [F14G], the protein stability index was 3.57.

FSFKVSRWMGLACMRSLAASSPSI [F14M]: the protein stability index is 2.21.

In the case of FSFKVSRWMGLACKRSLAASSPSI [F14K], the protein stability index stood at 1.93.

Take FSFKVSRWMGLACFMSLAASSPSI [R15M]: the protein stability index was determined as 3.86.

Regarding FSFKVSRWMGLACFISLAASSPSI [R15I], the protein stability index came to 2.04.

FSFKVSRWMGLACFVSLAASSPSI [R15V]: the protein stability index is 3.28.

Consider FSFKVSRWMGLACFDSLAASSPSI [R15D], for which the protein stability index worked out at 2.71.

As for FSFKVSRWMGLACFSSLAASSPSI [R15S], the protein stability index is 1.7.

FSFKVSRWMGLACFLSLAASSPSI [R15L]: the protein stability index was 3.13.

With FSFKVSRWMGLACFWSLAASSPSI [R15W], the protein stability index came to 4.5.

On to FSFKVSRWMGLACFHSLAASSPSI [R15H], for which the protein stability index was determined as 3.52.

For the variant FSFKVSRWMGLACFESLAASSPSI [R15E], the protein stability index was 3.26.

As to FSFKVSRWMGLACFQSLAASSPSI [R15Q], the protein stability index is 5.05.

Consider FSFKVSRWMGLACFYSLAASSPSI [R15Y], for which the protein stability index was 2.87.

For the variant FSFKVSRWMGLACFASLAASSPSI [R15A], the protein stability index is 3.76.

Take FSFKVSRWMGLACFTSLAASSPSI [R15T]: the protein stability index was 2.79.

In the case of FSFKVSSWMGLACFRSLAASSPSI [R7S], the protein stability index was 2.14.

For FSFKVSMWMGLACFRSLAASSPSI [R7M], the protein stability index amounted to 2.33.

FSFKVSVWMGLACFRSLAASSPSI [R7V]: the protein stability index came out at 3.67.

Regarding FSFKVSKWMGLACFRSLAASSPSI [R7K], the protein stability index was 2.3.

In the case of FSFKVSWWMGLACFRSLAASSPSI [R7W], the protein stability index was 3.02.

For the variant FSFKVSYWMGLACFRSLAASSPSI [R7Y], the protein stability index came to 2.52.

Take FSFKVSQWMGLACFRSLAASSPSI [R7Q]: the protein stability index amounted to 2.19.

Turning to FSFKVSNWMGLACFRSLAASSPSI [R7N], the protein stability index came to 2.53.

FSFKVSIWMGLACFRSLAASSPSI [R7I]: the protein stability index is 4.23.
